The chains are these.
B1: KAT8 regulatory NSL complex subunit 2 (Homo sapiens), Q9H9L4 (parent)
chain: MNRIRIHVLPTNRGRITPVPRSQEPLSCAFTHRPCSHPRLEGQEFCIKHILEDKNAPFKQCSYISTKNGKRCPNAAPKPEKKDGVSFCAEHVRRNALALHAQMKKTNPGPVGETLLCQLSSYAKTELGSQTPESSRSEASRILDEDSWSDGEQEPITVDQTWRGDPDSEADSIDSDQEDPLKHAGVYTAEEVALIMREKLIRLQSLYIDQFKRLQHLLKEKKRRYLHNRKVEHEALGSSLLTGPEGLLAKERENLKRLKCLRRYRQRYGVEALLHRQLKERRMLATDGAAQQAHTTRSSQRCLAFVDDVRCSNQSLPMTRHCLTHICQDTNQVLFKCCQGSEEVPCNKPVPVSLSEDPCCPLHFQLPPQMYKPEQVLSVPDDLEAGPMDLYLSAAELQPTESLPLEFSDDLDVVGDGMQCPPSPLLFDPSLTLEDHLVKEIAEDPVDILGQMQMAGDGCRSQGSRNSEKASAPLSQSGLATANGKPEPTSIS
B2: KAT8 regulatory NSL complex subunit 1 (Homo sapiens), Q7Z3B3 (parent)
chain: MAAMAPALTDAAAEAHHIRFKLAPPSSTLSPGSAENNGNANILIAANGTKRKAIAAEDPSLDFRNNPTKEDLGKLQPLVASYLCSDVTSVPSKESLKLQGVFSKQTVLKSHPLLSQSYELRAELLGRQPVLEFSLENLRTMNTSGQTALPQAPVNGLAKKLTKSSTHSDHDNSTSLNGGKRALTSSALHGGEMGGSESGDLKGGMTNCTLPHRSLDVEHTTLYSNNSTANKSSVNSMEQPALQGSSRLSPGTDSSSNLGGVKLEGKKSPLSSILFSALDSDTRITALLRRQADIESRARRLQKRLQVVQAKQVERHIQHQLGGFLEKTLSKLPNLESLRPRSQLMLTRKAEAALRKAASETTTSEGLSNFLKSNSISEELERFTASGIANLRCSEQAFDSDVTDSSSGGESDIEEEELTRADPEQRHVPLRRRSEWKWAADRAAIVSRWNWLQAHVSDLEYRIRQQTDIYKQIRANKGLIVLGEVPPPEHTTDLFLPLSSEVKTDHGTDKLIESVSQPLENHGAPIIGHISESLSTKSCGALRPVNGVINTLQPVLADHIPGDSSDAEEQLHKKQRLNLVSSSSDGTCVAARTRPVLSCKKRRLVRPNSIVPLSKKVHRNSTIRPGCDVNPSCALCGSGSINTMPPEIHYEAPLLERLSQLDSCVHPVLAFPDDVPTSLHFQSMLKSQWQNKPFDKIKPPKKLSLKHRAPMPGSLPDSARKDRHKLVSSFLTTAKLSHHQTRPDRTHRQHLDDVGAVPMVERVTAPKAERLLNPPPPVHDPNHSKMRLRDHSSERSEVLKHHTDMSSSSYLAATHHPPHSPLVRQLSTSSDSPAPASSSSQVTASTSQQPVRRRRGESSFDINNIVIPMSVAATTRVEKLQYKEILTPSWREVDLQSLKGSPDEENEEIEDLSDAAFAALHAKCEEMERARWLWTTSVPPQRRGSRSYRSSDGRTTPQLGSANPSTPQPASPDVSSSHSLSEYSHGQSPRSPISPELHSAPLTPVARDTPRHLASEDTRCSTPELGLDEQSVQPWERRTFPLAHSPQAECEDQLDAQERAARCTRRTSGSKTGRETEAAPTSPPIVPLKSRHLVAAATAQRPTHR

This is an account of results in IntAct's records for PubMed 24788516.

The variants in one assay derive from B1. Particulars: with wdr5_human WDR5, P61964.
On to MNRIRIHVLPTNRGRITPVPRSQEPLSCAFTHRPCSHPRLEGQEFCIKHILEDKNAPFKQCSYISTKNGKRCPNAAPKPEKKDGVSFCAEHVRRNALALHAQMKKTNPGPVGETLLCQLSSYAKTELGSQTPESSRSEASRILDEDSWSDGEQEPITVDQTWRGDPDSEADSIDSDQEDPLKHAGVYTAEEVALIMREKLIRLQSLYIDQFKRLQHLLKEKKRRYLHNRKVEHEALGSSLLTGPEGLLAKERENLKRLKCLRRYRQRYGVEALLHRQLKERRMLATDGAAQQAHTTRSSQRCLAFVDDVRCSNQSLPMTRHCLTHICQDTNQVLFKCCQGSEEVPCNKPVPVSLSEDPCCPLHFQLPPQMYKPEQVLSVPDDLEAGPMDLYLSAAELQPTESLPLEFSDDEDDVGDGMQCPPSPLLFDPSLTLEDHLVKEIAEDPVDILGQMQMAGDGCRSQGSRNSEKASAPLSQSGLATANGKPEPTSIS [L411E;V413D], for which the “effect of a mutation on the interaction” value is on record as “disrupting interaction”.

In a further assay the parent is B1. The note with it: with wdr5_human WDR5, P61964. The source holds these as a separate data set.
In the case of MNRIRIHVLPTNRGRITPVPRSQEPLSCAFTHRPCSHPRLEGQEFCIKHILEDKNAPFKQCSYISTKNGKRCPNAAPKPEKKDGVSFCAEHVRRNALALHAQMKKTNPGPVGETLLCQLSSYAKTELGSQTPESSRSEASRILDEDSWSDGEQEPITVDQTWRGDPDSEADSIDSDQEDPLKHAGVYTAEEVALIMREKLIRLQSLYIDQFKRLQHLLKEKKRRYLHNRKVEHEALGSSLLTGPEGLLAKERENLKRLKCLRRYRQRYGVEALLHRQLKERRMLATDGAAQQAHTTRSSQRCLAFVDDVRCSNQSLPMTRHCLTHICQDTNQVLFKCCQGSEEVPCNKPVPVSLSEDPCCPLHFQLPPQMYKPEQVLSVPDDLEAGPMDLYLSAAELQPTESLPLEFSDDLDDVGDGMQCPPSPLLFDPSLTLEDHLVKEIAEDPVDILGQMQMAGDGCRSQGSRNSEKASAPLSQSGLATANGKPEPTSIS [V413D], the “effect of a mutation on the interaction” value is on record as “disrupting interaction”.

The variants in a further assay derive from B2. The note with it: with wdr5_human WDR5, P61964.
With R592A, the “effect of a mutation on the interaction” value is listed as “disrupting interaction”.
